Data taken from the RNAGym collection of RNA variant scans (doi:10.7554/elife.90254).

B1: LINE1-mini (parent)
chain: GGCAGAGCUCAACACAGCGUGGCAAAGUGGCUGUGGCUAGACUGCC

Variants of: B1
Test: self-cleavage, relative activity (ratio to wild type); higher = more cleavage; in vitro, sequencing; the parent is a self-cleaving ribozyme

Row | Variant | self-cleavage
1 | GGCAGAGCUCAACACAGCGUGGCAAAAUGGCUGUGGCUCGACUGCC | 0.11
2 | GGCAGAGCUCAACACAGCGUGGCAAAAUGGCUGUGGCUGGACUGCC | 0.08
3 | GGCAGAGCUCAACACAGCGUGGCAAAAUGGCUGUGGCUUGACUGCC | 0.59
4 | GGCAGAGCUCAACACAGCGUGGCAAAAGGGCUGUGGCUAGACUGCC | 0.4
5 | GGCAGAGCUCAACACAGCGUGGCAAAACGGCUGUGGCUAGACUGCC | 0.87
6 | GGCAGAGCUCAACACAGCGUGGCAAAAAGGCUGUGGCUAGACUGCC | 0.77
7 | GGCAGAGCUCAACACAGCGUGGCAAAAUGGCUGUGCCUAGACUGCC | 0.25
8 | GGCAGAGCUCAACACAGCGUGGCAAAAUGGCUGUGUCUAGACUGCC | 0.08
9 | GGCAGAGCUCAACACAGCGUGGCAAAAUGGCUGUGACUAGACUGCC | 0.09
10 | GGCAGAGCUCAACACAGCGUGGCAAUGUGGCUGUGGCGAGACUGCC | 0.03
11 | GGCAGAGCUCAACACAGCGUGGCAAUGUGGCUGUGGCAAGACUGCC | 0.35
12 | GGCAGAGCUCAACACAGCGUGGCAAUGUGGCUGUGGCCAGACUGCC | 0.48
13 | GGCAGAGCUCAACACAGCGUGGCAAAAUGGAUGUGGCUAGACUGCC | 1.09
14 | GGCAGAGCUCAACACAGCGUGGCAAAAUGGUUGUGGCUAGACUGCC | 0.26
15 | GGCAGAGCUCAACACAGCGUGGCAAAAUGGGUGUGGCUAGACUGCC | 0.2
16 | GGCAGAGCUCAACACAGCGUGGCAAAAUGGCUGUGGCUAGGCUGCC | 0.38
17 | GGCAGAGCUCAACACAGCGUGGCAAAAUGGCUGUGGCUAGUCUGCC | 0.49
18 | GGCAGAGCUCAACACAGCGUGGCAAAAUGGCUGUGGCUAGCCUGCC | 0.04
19 | GGCAGAGCUCAACACAGCGUGGCAAAAUGGCUGUGGCUAGACUCCC | 0.65
20 | GGCAGAGCUCAACACAGCGUGGCAAAAUGGCUGUGGCUAGACUACC | 0.34
21 | GGCAGAGCUCAACACAGCGUGGCAAAAUGGCUGUGGCUAGACUUCC | 0.3
22 | GGCAGAGCUCAACACAGCGUGGCAAAAUGGCUGUAGCUAGACUGCC | 0.19
23 | GGCAGAGCUCAACACAGCGUGGCAAAAUGGCUGUUGCUAGACUGCC | 0.22

Row | Variant | self-cleavage
24 | GGCAGAGCUCAACACAGCGUGGCAAAAUGGCUGUCGCUAGACUGCC | 0.12
25 | GGCAGAGCUCAACACAGCGUGGCAAAAUGGCUGUGGCCAGACUGCC | 0.26
26 | GGCAGAGCUCAACACAGCGUGGCAAAAUGGCUGUGGCGAGACUGCC | 0.02
27 | GGCAGAGCUCAACACAGCGUGGCAAAAUGGCUGUGGCAAGACUGCC | 0.28
28 | GGCAGAGCUCAACACAGCGUGGCAAUGUGGCUGUGGCUAGACUCCC | 0.64
29 | GGCAGAGCUCAACACAGCGUGGCAAUGUGGCUGUGGCUAGACUUCC | 0.41
30 | GGCAGAGCUCAACACAGCGUGGCAAUGUGGCUGUGGCUAGACUACC | 0.64
31 | GGCAGAGCUCAACACAGCGUGGCAAACUGGCUAUGGCUAGACUGCC | 0.13
32 | GGCAGAGCUCAACACAGCGUGGCAAACUGGCUUUGGCUAGACUGCC | 0.12
33 | GGCAGAGCUCAACACAGCGUGGCAAACUGGCUCUGGCUAGACUGCC | 0.04
34 | GGCAGAGCUCAACACAGCGUGGCAAUGGGGCUGUGGCUAGACUGCC | 1.74
35 | GGCAGAGCUCAACACAGCGUGGCAAUGCGGCUGUGGCUAGACUGCC | 0.74
36 | GGCAGAGCUCAACACAGCGUGGCAAUGAGGCUGUGGCUAGACUGCC | 0.88
37 | GGCAGAGCUCAACACAGCGUGGCAAAAUGGCUGAGGCUAGACUGCC | 0.19
38 | GGCAGAGCUCAACACAGCGUGGCAAAAUGGCUGGGGCUAGACUGCC | 0.32
39 | GGCAGAGCUCAACACAGCGUGGCAAAAUGGCUGCGGCUAGACUGCC | 0.13
40 | GGCAGAGCUCAACACAGCGUGGCAAUGUGGCUGUGGCUAGACCGCC | 0.12
41 | GGCAGAGCUCAACACAGCGUGGCAAUGUGGCUGUGGCUAGACGGCC | 0.09
42 | GGCAGAGCUCAACACAGCGUGGCAAUGUGGCUGUGGCUAGACAGCC | 0.08
43 | GGCAGAGCUCAACACAGCGUGGCAAACUUGCUGUGGCUAGACUGCC | 0.51
44 | GGCAGAGCUCAACACAGCGUGGCAAACUAGCUGUGGCUAGACUGCC | 0.39
45 | GGCAGAGCUCAACACAGCGUGGCAAACUCGCUGUGGCUAGACUGCC | 0.37
46 | GGCAGAGCUCAACACAGCGUGGCAAACUGGCUGUAGCUAGACUGCC | 0.09

Row | Variant | self-cleavage
47 | GGCAGAGCUCAACACAGCGUGGCAAACUGGCUGUCGCUAGACUGCC | 0.25
48 | GGCAGAGCUCAACACAGCGUGGCAAACUGGCUGUUGCUAGACUGCC | 0.07
49 | GGCAGAGCUCAACACAGCGUGGCAAAAUUGCUGUGGCUAGACUGCC | 0.5
50 | GGCAGAGCUCAACACAGCGUGGCAAAAUCGCUGUGGCUAGACUGCC | 0.36
51 | GGCAGAGCUCAACACAGCGUGGCAAAAUAGCUGUGGCUAGACUGCC | 0.65
52 | GGCAGAGCUCAACACAGCGUGGCAAUGUGGCAGUGGCUAGACUGCC | 0.11
53 | GGCAGAGCUCAACACAGCGUGGCAAUGUGGCGGUGGCUAGACUGCC | 0.36
54 | GGCAGAGCUCAACACAGCGUGGCAAUGUGGCCGUGGCUAGACUGCC | 0.11
55 | GGCAGAGCUCAACACAGCGUGGCAAAAUGGCUGUGGCUAGAAUGCC | 0.21
56 | GGCAGAGCUCAACACAGCGUGGCAAAAUGGCUGUGGCUAGAUUGCC | 0.26
57 | GGCAGAGCUCAACACAGCGUGGCAAAAUGGCUGUGGCUAGAGUGCC | 0.05
58 | GGCAGAGCUCAACACAGCGUGGCAAACUGGCUGUGGCUAGGCUGCC | 0.25
59 | GGCAGAGCUCAACACAGCGUGGCAAACUGGCUGUGGCUAGCCUGCC | 0.03
60 | GGCAGAGCUCAACACAGCGUGGCAAACUGGCUGUGGCUAGUCUGCC | 0.25
61 | GGCAGAGCUCAACACAGCGUGGCAAAAUGGCUGUGGGUAGACUGCC | 0.02
62 | GGCAGAGCUCAACACAGCGUGGCAAAAUGGCUGUGGUUAGACUGCC | 0.05
63 | GGCAGAGCUCAACACAGCGUGGCAAAAUGGCUGUGGAUAGACUGCC | 0.05
64 | GGCAGAGCUCAACACAGCGUGGCAAACUGGCUGUGGCUAGAUUGCC | 0.11
65 | GGCAGAGCUCAACACAGCGUGGCAAACUGGCUGUGGCUAGAGUGCC | 0.09
66 | GGCAGAGCUCAACACAGCGUGGCAAACUGGCUGUGGCUAGAAUGCC | 0.07
67 | GGCAGAGCUCAACACAGCGUGGCAAACUGGCUGUGCCUAGACUGCC | 0.09
68 | GGCAGAGCUCAACACAGCGUGGCAAACUGGCUGUGACUAGACUGCC | 0.35
69 | GGCAGAGCUCAACACAGCGUGGCAAACUGGCUGUGGUUAGACUGCC | 0.04

Row | Variant | self-cleavage
70 | GGCAGAGCUCAACACAGCGUGGCAAACUGGCUGUGGAUAGACUGCC | 0.06
71 | GGCAGAGCUCAACACAGCGUGGCAAACUGGCUGUGGGUAGACUGCC | 0.02
72 | GGCAGAGCUCAACACAGCGUGGCAAACUGGCUGUGGCUUGACUGCC | 0.76
73 | GGCAGAGCUCAACACAGCGUGGCAAACUGGCUGUGGCUCGACUGCC | 0.11
74 | GGCAGAGCUCAACACAGCGUGGCAAACUGGCUGUGGCUGGACUGCC | 0.06
75 | GGCAGAGCUCAACACAGCGUGGCAAAAUGGCUGUGGCUAGACGGCC | 0.05
76 | GGCAGAGCUCAACACAGCGUGGCAAAAUGGCUGUGGCUAGACCGCC | 0.37
77 | GGCAGAGCUCAACACAGCGUGGCAAAAUGGCUGUGGCUAGACAGCC | 0.08
78 | GGCAGAGCUCAACACAGCGUGGCAAAAUGGCUGUGGCUAGACUGCG | 1.05
79 | GGCAGAGCUCAACACAGCGUGGCAAAAUGGCUGUGGCUAGACUGCA | 1.19
80 | GGCAGAGCUCAACACAGCGUGGCAAAAUGGCUGUGGCUAGACUGCU | 2.06
81 | GGCAGAGCUCAACACAGCGUGGCAAAAUGGCGGUGGCUAGACUGCC | 0.21
82 | GGCAGAGCUCAACACAGCGUGGCAAAAUGGCAGUGGCUAGACUGCC | 0.06
83 | GGCAGAGCUCAACACAGCGUGGCAAAAUGGCCGUGGCUAGACUGCC | 0.15
84 | GGCAGAGCUCAACACAGCGUGGCAAACUGUCUGUGGCUAGACUGCC | 1.72
85 | GGCAGAGCUCAACACAGCGUGGCAAACUGCCUGUGGCUAGACUGCC | 0.84
86 | GGCAGAGCUCAACACAGCGUGGCAAACUGACUGUGGCUAGACUGCC | 1.2
87 | GGCAGAGCUCAACACAGCGUGGCAAAAUGUCUGUGGCUAGACUGCC | 1.61
88 | GGCAGAGCUCAACACAGCGUGGCAAAAUGACUGUGGCUAGACUGCC | 2.28
89 | GGCAGAGCUCAACACAGCGUGGCAAAAUGCCUGUGGCUAGACUGCC | 1.53
90 | GGCAGAGCUCAACACAGCGUGGCAAACUGGCUGUGGCUAGACUGCC | 0.72
91 | GGCAGAGCUCAACACAGCGUGGCAAAAUGGCUGUGGCUAGACUGCC | 0.81
92 | GGCAGAGCUCAACACAGCGUGGCAAACUGGAUGUGGCUAGACUGCC | 0.15

Row | Variant | self-cleavage
93 | GGCAGAGCUCAACACAGCGUGGCAAACUGGUUGUGGCUAGACUGCC | 0.07
94 | GGCAGAGCUCAACACAGCGUGGCAAACUGGGUGUGGCUAGACUGCC | 0.05
95 | GGCAGAGCUCAACACAGCGUGGCAAAAUGGCUCUGGCUAGACUGCC | 0.08
96 | GGCAGAGCUCAACACAGCGUGGCAAAAUGGCUUUGGCUAGACUGCC | 0.17
97 | GGCAGAGCUCAACACAGCGUGGCAAAAUGGCUAUGGCUAGACUGCC | 0.1
98 | GGCAGAGCUCAACACAGCGUGGCAAACUGGCUGUGGCUAGACUGAC | 0.29
99 | GGCAGAGCUCAACACAGCGUGGCAAACUGGCUGUGGCUAGACUGGC | 0.32
100 | GGCAGAGCUCAACACAGCGUGGCAAACUGGCUGUGGCUAGACUGUC | 2.02
101 | GGCAGAGCUCAACACAGCGUGGCAAACUGGCUGUGGCUAGACUGCA | 0.71
102 | GGCAGAGCUCAACACAGCGUGGCAAACUGGCUGUGGCUAGACUGCG | 0.59
103 | GGCAGAGCUCAACACAGCGUGGCAAACUGGCUGUGGCUAGACUGCU | 1.09
104 | GGCAGAGCUCAACACAGCGUGGCAAAAUGGCUGUGGCUACACUGCC | 0.17
105 | GGCAGAGCUCAACACAGCGUGGCAAAAUGGCUGUGGCUAAACUGCC | 0.18
106 | GGCAGAGCUCAACACAGCGUGGCAAAAUGGCUGUGGCUAUACUGCC | 0.14
107 | GGCAGAGCUCAACACAGCGUGGCAAUGUGGCUGCGGCUAGACUGCC | 0.18
108 | GGCAGAGCUCAACACAGCGUGGCAAUGUGGCUGGGGCUAGACUGCC | 0.15
109 | GGCAGAGCUCAACACAGCGUGGCAAUGUGGCUGAGGCUAGACUGCC | 0.07
110 | GGCAGAGCUCAACACAGCGUGGCAAAAUGGCUGUGGCUAGACUGAC | 0.79
111 | GGCAGAGCUCAACACAGCGUGGCAAAAUGGCUGUGGCUAGACUGUC | 1.88
112 | GGCAGAGCUCAACACAGCGUGGCAAAAUGGCUGUGGCUAGACUGGC | 0.51
